The source of these data is patent US20200247855A1 (published 2020).

Test [1] has as its target T1, CXCL10_HUMAN (human, UniProt P02778 22-98).
T1 sequence: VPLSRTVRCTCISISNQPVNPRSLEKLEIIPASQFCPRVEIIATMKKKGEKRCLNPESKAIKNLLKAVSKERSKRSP
As to the kind of experiment: YSD.

The target in another test is T2, CXCL9_HUMAN (human, UniProt Q07325 23-125).
T2 sequence: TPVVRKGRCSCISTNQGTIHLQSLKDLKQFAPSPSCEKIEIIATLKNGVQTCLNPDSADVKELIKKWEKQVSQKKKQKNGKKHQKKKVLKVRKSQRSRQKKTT
As to the kind of experiment: YSD FACS.

The target in another test is T3, P672_RHIPU (Rhipicephalus pulchellus, UniProt L7MC74 22-125).
T3 sequence: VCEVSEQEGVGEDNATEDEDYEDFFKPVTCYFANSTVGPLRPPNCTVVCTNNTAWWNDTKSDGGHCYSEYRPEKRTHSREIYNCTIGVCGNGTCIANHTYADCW
As to the kind of experiment: BLI. (BLI is a label-free optical method that tracks binding on a fibre tip over time.)

The next test concerns the target T4, P991_AMBCA (Amblyomma cajennense, UniProt A0A023FFD0 29-136).
T4 construct: His-tagged in BLI
T4 sequence: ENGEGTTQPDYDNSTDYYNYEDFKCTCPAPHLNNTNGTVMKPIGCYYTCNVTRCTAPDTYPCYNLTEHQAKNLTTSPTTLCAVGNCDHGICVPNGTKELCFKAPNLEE
Kind of test: BLI.

The next test addresses T5, P546_AMBCA (Amblyomma cajennense, UniProt A0A023FBW7 22-118).
T5 construct: His-tagged in BLI
T5 sequence: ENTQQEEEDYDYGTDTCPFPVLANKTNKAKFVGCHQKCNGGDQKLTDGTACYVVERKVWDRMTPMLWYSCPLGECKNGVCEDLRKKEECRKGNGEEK
Kind of test: BLI.

The target of another test is T6, P974_AMBCA (Amblyomma cajennense, UniProt A0A023FDY8 22-118).
T6 construct: His-tagged in BLI
T6 sequence: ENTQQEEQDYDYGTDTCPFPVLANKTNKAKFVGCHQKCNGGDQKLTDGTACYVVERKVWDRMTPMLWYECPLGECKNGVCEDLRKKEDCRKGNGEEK
As to the kind of experiment: BLI.

For a further test, the target named is T7, P985_AMBPA (Amblyomma parvum, UniProt A0A023FT45 25-132).
T7 construct: His-tagged in BLI
T7 sequence: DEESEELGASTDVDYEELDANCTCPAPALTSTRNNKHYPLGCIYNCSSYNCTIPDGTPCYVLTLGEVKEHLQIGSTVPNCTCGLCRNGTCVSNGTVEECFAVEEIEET
Kind of test: BLI.

Test [2] addresses T1, CXCL10_HUMAN. As to the kind of experiment: YSD FACS.
For the next test, the target named is CXCL12_HUMAN (human, UniProt P48061 22-89). Kind of test: YSD FACS.
In the next test the target is T8, CXCL8_HUMAN (human, UniProt P10145 28-99).
T8 sequence: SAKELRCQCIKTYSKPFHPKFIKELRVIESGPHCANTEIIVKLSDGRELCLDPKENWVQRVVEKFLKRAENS
As to the kind of experiment: YSD.

The next test concerns the target T9, CCL25_HUMAN (human, UniProt O15444 24-150).
T9 sequence: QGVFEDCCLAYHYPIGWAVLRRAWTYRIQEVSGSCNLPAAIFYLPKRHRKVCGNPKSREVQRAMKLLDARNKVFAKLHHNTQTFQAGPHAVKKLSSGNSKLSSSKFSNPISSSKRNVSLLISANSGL
As to the kind of experiment: YSD.

Sequence of CXCL12_HUMAN (P48061 22-89 limits assumed): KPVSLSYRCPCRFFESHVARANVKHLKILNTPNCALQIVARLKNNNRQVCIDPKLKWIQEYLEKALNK

B1: P1283_IXORI (other)
chain: KEPEDTTLPPGALVDSPDSDNCSSPHLPYFDETTNMWMGFLAVNCTKKCPVGKHVTVVDGNKCIGTWSFLDELTITVLVGSCKDGFCETDGSSECRNITLAEEDSQEEEGAAAEEEDEEDEEDEEEEEAEEEREDDHDDA
notes: yeast surface display
In the case of B1, in the test with CXCL10_HUMAN [1], the binding result was “binds”.

B2: P1086_IXORI (other)
chain: GSKGQRASQVSETSITAEFCDTSCTQGTDKTWSGCSGDCFCVHVGNDTEGRCMRWDGDYPSAEEEE
notes: yeast surface display
Take B2: the “% cells over threshold fluorescence” value with CXCL9_HUMAN was determined as 54%.

B3: CCL23_HUMAN (ligand)
chain: RVTKDAETEFMMSKLPLENPVLLDRFHATSADCCISYTPRSIPCSLLESYFETNSECSKPGVIFLTKKGRRFCANPSDKQVQVCMRMLKLDTRIKTRKN
As usually defined, the Kd is the free concentration of one partner at which half of the binding sites on the other are occupied at equilibrium, for simple one-to-one binding. The low end stands for higher affinity, the high end for lower affinity. For B3, the Kd with P672_RHIPU worked out at 10 nM; with P991_AMBCA, 5.58 nM.

B4: P1126_AMBCA (other)
chain: KPQILQRTDKSTDSEWDPQTCPETCIPSKNITCSDGCVCVKLGEEEEGTCFNMTGVDWLGSPSDD
notes: yeast surface display
On to B4, for which, in the test with CXCL9_HUMAN, the “% cells over threshold fluorescence” value turned out to be 56%.

B5: CCL22_HUMAN (ligand)
chain: GPYGANMEDSVCCRDYVRYRLPLRVVKHFYWTSDSCPRPGVVLLTFRDKEICADPRVPWVKMILNKLSQ
Turning to B5, the Kd amounted to 27 nM with P546_AMBCA, 16.5 nM with P974_AMBCA and 3.97 nM with P991_AMBCA.

B6: CCL24_HUMAN (ligand)
chain: VVIPSPCCMFFVSKRIPENRVVSYQLSSRSTCLKAGVIFTTKKGQQFCGDPKQEWVQRYMKNLDAKQKKASPRARAVA
For B6, the equilibrium dissociation constant (Kd) with P985_AMBPA came to 41 nM; in the test with P991_AMBCA it was 6.54 nM.

B7: P1134_IXORI (other)
chain: NEEVFTVEYCGMNCTQKSDGTWTECSGKNKDCRCYHESDAREGLCLSTEYTDFSQFETPSNSDLEAATPRPRKTLYPVRNPHGPKTRGLGYDKRILRDRVKFLI
notes: yeast surface display
Turning to B7, in the test with CXCL10_HUMAN [2], the “% cells over threshold fluorescence” value was found to be 66%.

B8: P1096_IXORI (other)
chain: HTTVTGSVEGKPNNPNEDIEVSYCRMNCTVENGVSSACSGDCVCVHRDNEPNGICVEITYFGDFGDPSQDPSIDEAAPRESVSKRRSNGES
notes: yeast surface display
With B8, the “% cells over threshold fluorescence” value with CXCL10_HUMAN [2] amounted to 50%.

B9: P1095_IXORI (other)
chain: HSPVAGSEVQKLTSDPNDDIDVSYCGMNCTVVNGKSDECSENCKCLHEGDDPKGICVAITYFGDWGDPNDDPKINEATPQTQIFEKKRK
notes: yeast surface display
B9: in the test with CXCL12_HUMAN, the “% cells over threshold fluorescence” value came out at 47%.

B10: P993_AMBPA (other)
chain: HRHYDPNEPCLIAGLKTPRDALPAGCRYDCMIKKNQKLRDGLLCLDVPEKVVKRMVNYLNYSCPLGTCRKGICKRKHRNVRCQKYPVFYMSPPK
notes: yeast surface display
Consider B10, for which the binding result with CXCL8_HUMAN was “binds”.

B11: CCL27_HUMAN (ligand)
chain: FLLPPSTACCTQLYRKPLSDKLLRKVIQVELQEADGDCHLQAFVLHLAQRSICIHPQNPSLSQWFEHQERKLHGTLPKLNFGMLRKMG
As to B11, the Kd with P991_AMBCA came out at 38.9 nM.

B12: P1100_IXORI (other)
chain: GSKGSSASQSSDNSVVAKFCDTNCTINEGGKWTECKGGCFCVHVGNETVGRCMKLDGDYDYPSPKPEE
notes: yeast surface display
For B12, in the test with CXCL9_HUMAN, the “% cells over threshold fluorescence” value was found to be 55%.

B13: P1220_IXORI (other)
chain: GSTPSAMKTEDILKVLGSTSSLENHTDSSHCRYQELLDITKNIENAGFLAINCQRSCPNGKQTMVEGYGCIFKIKHATKRGKVKVKEGSCRKGACVRGSTRPPWRLLVLLGESKEEEFL
notes: yeast surface display
For B13, in the test with CCL25_HUMAN, the binding result is listed as “binds”.

B14: P458_IXORI (other)
chain: GSKQPGAAGSSSDSVEAVFCPTNCTKGTNGAWSGCSDDCICVHVGENTEGSCMKFSGDYDYPTPEA
notes: yeast surface display
On to B14, for which the “% cells over threshold fluorescence” value with CXCL9_HUMAN amounted to 37%.

B15: P1030_AMBPA (other)
chain: GPPSIPGNESIPGCGDAGTTTAPEDNPKHYGTLTDKKGCTLPIIGTWMTAVDHQHLQGTRGERRGPTGKVNLPASCRKNCHGRQEILRDGIPCRKVVGNPKGSKKHLKSGCLRGKCLAGQCVNDGRRISCYVPRNITDTEPTPGLLAE
notes: yeast surface display
For B15, the binding result with CXCL8_HUMAN was “binds”.

B16: P1080_IXORI (other)
chain: SAGSKGSSAPQSSGDSVVAEFCDTNCTMKKDGKWTECNGDCFCVHVGNETVGRCMRLDGDYDYTSSKTTRRNKKTRNGLCRLDRNRTTVDYPERNTREP
notes: yeast surface display
In the case of B16, the “% cells over threshold fluorescence” value with CXCL9_HUMAN came out at 49%; with CXCL12_HUMAN, 53%.

B17: P1219_IXORI (other)
chain: ASLAKETEDTTLPARALVDSPDSDNCSSPQLPYFDELTYMPLGFLAVNCTKTCPVGKNGTVVNGNKCIVTWSILDVSTITVLVGSCKNGYCISDGSSECRNITLAGEDSQEEEEEAEEDEEEDDGDEEEDEEEDEEENDDD
notes: yeast surface display
Turning to B17, the binding result in the test with CXCL10_HUMAN [1] is listed as “binds”.

B18: P1124_IXORI (other)
chain: DSKGTSDSQDSTKSIKVDFCETNCTKTDGGWTGCTGDCICVSVGDSIEGRCMDFG
notes: yeast surface display
Turning to B18, the “% cells over threshold fluorescence” value with CXCL9_HUMAN was found to be 31%.

B19: P1074_IXORI (other)
chain: GSKESSAHQSSDDSIKAEFCDAKCTMKTDGKWTQCHGGCFCVHVGNETEGRCMRLDGDYDYPSTQPEE
notes: yeast surface display
B19: the “% cells over threshold fluorescence” value with CXCL9_HUMAN amounted to 35%.

B20: P1224_IXORI (other)
chain: SDLCKMEAESSPFKLPQSSLLDAPDEEGCKYQLLFVEAEGPLVVNCTKDCPNGKIRTVVEGELCIAMVKTSSSGEATGLVGSCKRGSCVKKDDPCRTFTLSEEGDDDEEDEEEEEDEEEDEEEDEEEEEEDEEEED
notes: yeast surface display
For the molecule B20, the binding result in the test with CXCL10_HUMAN [1] is given as “binds”.
